# Reference: patent publication US20220010021A1 (Sanofi, published 2022)
# T1: human beta-Klotho (KLB) (human, UniProt Q86Z14 53-997)
# T1 construct: also called human KLB
# T1 sequence (looked up): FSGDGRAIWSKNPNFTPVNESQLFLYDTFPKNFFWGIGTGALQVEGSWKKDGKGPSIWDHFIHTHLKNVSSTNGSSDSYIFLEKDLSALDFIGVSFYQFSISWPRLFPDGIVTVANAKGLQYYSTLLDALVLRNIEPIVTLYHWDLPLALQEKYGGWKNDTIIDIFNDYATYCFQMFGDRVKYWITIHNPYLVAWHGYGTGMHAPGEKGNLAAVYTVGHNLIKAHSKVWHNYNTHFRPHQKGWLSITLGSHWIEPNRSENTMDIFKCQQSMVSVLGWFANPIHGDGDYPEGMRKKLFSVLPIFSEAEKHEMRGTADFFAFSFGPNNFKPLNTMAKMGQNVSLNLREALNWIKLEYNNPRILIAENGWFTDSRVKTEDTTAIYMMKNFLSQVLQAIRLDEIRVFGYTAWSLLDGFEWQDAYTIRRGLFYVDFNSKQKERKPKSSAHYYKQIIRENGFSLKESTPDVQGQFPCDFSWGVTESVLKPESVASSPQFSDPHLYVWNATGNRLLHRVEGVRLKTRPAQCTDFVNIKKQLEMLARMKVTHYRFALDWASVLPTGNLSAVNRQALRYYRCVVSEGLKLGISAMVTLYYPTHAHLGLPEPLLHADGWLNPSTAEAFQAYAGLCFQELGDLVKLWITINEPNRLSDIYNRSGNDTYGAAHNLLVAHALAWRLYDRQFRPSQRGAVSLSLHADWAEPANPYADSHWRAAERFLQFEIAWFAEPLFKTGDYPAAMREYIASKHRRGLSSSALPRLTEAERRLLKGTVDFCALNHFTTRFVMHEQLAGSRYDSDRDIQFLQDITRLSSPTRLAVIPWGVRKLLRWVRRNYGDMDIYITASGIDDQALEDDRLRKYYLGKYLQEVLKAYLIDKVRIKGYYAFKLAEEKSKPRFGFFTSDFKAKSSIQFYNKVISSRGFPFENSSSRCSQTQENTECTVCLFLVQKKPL
# Assays:
# [1] = target: T1, human beta-Klotho (KLB); test: BLI off-rate screen (Octet), Ab captured via Fc;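 further: antibody supernatants applied at 25 µg/mL, dissociation monitored over 1800 s in D-PBS with 0.1% BSA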
# [2] = target: human FGFR1c/KLB cell surface receptor complex on iLite FGF21 reporter cells (human, UniProt P11362 22-822; Q86Z14 1-1044); test: cell-based or functional assay
# Chain of human FGFR1c/KLB cell surface receptor complex on iLite FGF21 reporter cells (P11362 22-822, chain 1 of 2): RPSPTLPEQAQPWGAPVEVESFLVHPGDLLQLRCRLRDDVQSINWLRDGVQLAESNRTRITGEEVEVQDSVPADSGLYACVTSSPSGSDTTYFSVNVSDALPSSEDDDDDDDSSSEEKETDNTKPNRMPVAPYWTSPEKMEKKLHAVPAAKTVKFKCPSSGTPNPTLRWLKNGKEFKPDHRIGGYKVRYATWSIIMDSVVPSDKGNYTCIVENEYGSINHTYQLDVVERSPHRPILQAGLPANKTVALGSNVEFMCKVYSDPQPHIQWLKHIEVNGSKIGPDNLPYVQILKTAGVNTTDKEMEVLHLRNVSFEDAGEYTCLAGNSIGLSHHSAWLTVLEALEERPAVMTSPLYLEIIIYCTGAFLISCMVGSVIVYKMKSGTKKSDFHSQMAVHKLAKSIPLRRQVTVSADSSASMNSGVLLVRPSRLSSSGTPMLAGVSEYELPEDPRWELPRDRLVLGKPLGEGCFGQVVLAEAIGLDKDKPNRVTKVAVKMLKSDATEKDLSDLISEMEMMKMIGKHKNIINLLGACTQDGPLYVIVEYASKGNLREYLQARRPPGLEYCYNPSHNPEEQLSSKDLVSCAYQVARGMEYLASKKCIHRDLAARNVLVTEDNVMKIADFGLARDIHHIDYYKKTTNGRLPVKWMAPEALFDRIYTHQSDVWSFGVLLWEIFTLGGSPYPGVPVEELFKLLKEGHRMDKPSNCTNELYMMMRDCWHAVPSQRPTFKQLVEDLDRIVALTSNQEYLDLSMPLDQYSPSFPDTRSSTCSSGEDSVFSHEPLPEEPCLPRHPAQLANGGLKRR
# Chain of human FGFR1c/KLB cell surface receptor complex on iLite FGF21 reporter cells (Q86Z14 whole entry, chain 2 of 2): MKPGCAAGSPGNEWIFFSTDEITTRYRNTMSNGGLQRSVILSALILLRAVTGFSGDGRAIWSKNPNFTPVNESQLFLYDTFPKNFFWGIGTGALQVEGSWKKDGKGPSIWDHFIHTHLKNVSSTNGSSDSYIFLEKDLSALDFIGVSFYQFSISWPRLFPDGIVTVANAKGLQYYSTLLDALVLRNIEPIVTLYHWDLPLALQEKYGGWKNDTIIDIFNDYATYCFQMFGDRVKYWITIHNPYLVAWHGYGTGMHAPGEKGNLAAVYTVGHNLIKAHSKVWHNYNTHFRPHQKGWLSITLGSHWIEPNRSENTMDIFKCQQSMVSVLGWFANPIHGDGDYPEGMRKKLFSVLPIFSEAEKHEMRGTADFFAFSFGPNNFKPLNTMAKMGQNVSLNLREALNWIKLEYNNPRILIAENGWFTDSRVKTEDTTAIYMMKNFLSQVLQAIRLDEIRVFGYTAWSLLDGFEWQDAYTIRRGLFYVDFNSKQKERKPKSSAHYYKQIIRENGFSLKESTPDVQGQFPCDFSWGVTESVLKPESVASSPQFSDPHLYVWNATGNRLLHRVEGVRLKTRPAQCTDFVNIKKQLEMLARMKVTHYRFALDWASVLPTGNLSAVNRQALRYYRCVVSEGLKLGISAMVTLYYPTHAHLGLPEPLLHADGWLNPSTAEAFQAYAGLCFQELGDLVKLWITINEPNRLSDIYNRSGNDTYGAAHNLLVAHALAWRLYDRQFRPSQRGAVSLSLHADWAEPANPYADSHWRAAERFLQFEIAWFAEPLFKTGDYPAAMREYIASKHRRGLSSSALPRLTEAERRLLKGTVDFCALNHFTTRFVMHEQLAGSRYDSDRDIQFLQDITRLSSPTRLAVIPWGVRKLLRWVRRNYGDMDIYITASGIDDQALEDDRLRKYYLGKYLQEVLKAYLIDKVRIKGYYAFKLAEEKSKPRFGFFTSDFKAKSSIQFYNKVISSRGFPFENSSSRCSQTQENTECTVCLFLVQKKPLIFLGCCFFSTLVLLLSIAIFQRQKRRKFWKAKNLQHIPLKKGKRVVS
Binder,koff [1] [s⁻¹],Mean E max (%) [2] [%],Mean EC50 [2] [nM]
"16H7 variant, light chain D52A (antibody, human IgG4 S228P, lambda, V domains shown, IgG4 backbone) VH: not shown VL: SYVLTQPPSVSVAPGQTARITCGGNNIGSESVHWYQQKPGQAPVLVVYDDSARPSGIPERFSGSNSGNTATLTISRVEAGDEADYYCQVWDGNSDHVVFGGGTKLTVLG",4.8e-05,101,0.163
"16H7 variant, light chain D52Y (antibody, human IgG4 S228P, lambda, V domains shown, IgG4 backbone) VH: not shown VL: SYVLTQPPSVSVAPGQTARITCGGNNIGSESVHWYQQKPGQAPVLVVYDDSYRPSGIPERFSGSNSGNTATLTISRVEAGDEADYYCQVWDGNSDHVVFGGGTKLTVLG",9.1e-05,102,0.11
"16H7 variant, light chain G23I (antibody, human IgG4 S228P, lambda, V domains shown, IgG4 backbone) VH: not shown VL: SYVLTQPPSVSVAPGQTARITCIGNNIGSESVHWYQQKPGQAPVLVVYDDSDRPSGIPERFSGSNSGNTATLTISRVEAGDEADYYCQVWDGNSDHVVFGGGTKLTVLG",2.9e-05,99,0.128
"16H7 variant, light chain D52M (antibody, human IgG4 S228P, lambda, V domains shown, IgG4 backbone) VH: not shown VL: SYVLTQPPSVSVAPGQTARITCGGNNIGSESVHWYQQKPGQAPVLVVYDDSMRPSGIPERFSGSNSGNTATLTISRVEAGDEADYYCQVWDGNSDHVVFGGGTKLTVLG",2.4e-05,105,0.144
"16H7 variant, light chain D52T (antibody, human IgG4 S228P, lambda, V domains shown, IgG4 backbone) VH: not shown VL: SYVLTQPPSVSVAPGQTARITCGGNNIGSESVHWYQQKPGQAPVLVVYDDSTRPSGIPERFSGSNSGNTATLTISRVEAGDEADYYCQVWDGNSDHVVFGGGTKLTVLG",1.8e-05,100,0.109
"16H7 variant, light chain G23D (antibody, human IgG4 S228P, lambda, V domains shown, IgG4 backbone) VH: not shown VL: SYVLTQPPSVSVAPGQTARITCDGNNIGSESVHWYQQKPGQAPVLVVYDDSDRPSGIPERFSGSNSGNTATLTISRVEAGDEADYYCQVWDGNSDHVVFGGGTKLTVLG",2.2e-05,108,0.104
"16H7 variant, light chain D52H (antibody, human IgG4 S228P, lambda, V domains shown, IgG4 backbone) VH: not shown VL: SYVLTQPPSVSVAPGQTARITCGGNNIGSESVHWYQQKPGQAPVLVVYDDSHRPSGIPERFSGSNSGNTATLTISRVEAGDEADYYCQVWDGNSDHVVFGGGTKLTVLG",3.6e-05,97,0.109
"16H7 variant, light chain D52V (antibody, human IgG4 S228P, lambda, V domains shown, IgG4 backbone) VH: not shown VL: SYVLTQPPSVSVAPGQTARITCGGNNIGSESVHWYQQKPGQAPVLVVYDDSVRPSGIPERFSGSNSGNTATLTISRVEAGDEADYYCQVWDGNSDHVVFGGGTKLTVLG",6.9e-05,114,0.125
"16H7 variant, light chain D52G (antibody, human IgG4 S228P, lambda, V domains shown, IgG4 backbone) VH: not shown VL: SYVLTQPPSVSVAPGQTARITCGGNNIGSESVHWYQQKPGQAPVLVVYDDSGRPSGIPERFSGSNSGNTATLTISRVEAGDEADYYCQVWDGNSDHVVFGGGTKLTVLG",3.7e-05,109,0.125
"16H7 variant, light chain D52N (antibody, human IgG4 S228P, lambda, V domains shown, IgG4 backbone) VH: not shown VL: SYVLTQPPSVSVAPGQTARITCGGNNIGSESVHWYQQKPGQAPVLVVYDDSNRPSGIPERFSGSNSGNTATLTISRVEAGDEADYYCQVWDGNSDHVVFGGGTKLTVLG",6.9e-07,115,0.124
"16H7 variant, light chain D52Q (antibody, human IgG4 S228P, lambda, V domains shown, IgG4 backbone) VH: not shown VL: SYVLTQPPSVSVAPGQTARITCGGNNIGSESVHWYQQKPGQAPVLVVYDDSQRPSGIPERFSGSNSGNTATLTISRVEAGDEADYYCQVWDGNSDHVVFGGGTKLTVLG",2.7e-05,101,0.107
"16H7 variant, light chain D52E (antibody, human IgG4 S228P, lambda, V domains shown, IgG4 backbone) VH: not shown VL: SYVLTQPPSVSVAPGQTARITCGGNNIGSESVHWYQQKPGQAPVLVVYDDSERPSGIPERFSGSNSGNTATLTISRVEAGDEADYYCQVWDGNSDHVVFGGGTKLTVLG",< 1e-05,123,0.114
"16H7 variant, light chain D52F (antibody, human IgG4 S228P, lambda, V domains shown, IgG4 backbone) VH: not shown VL: SYVLTQPPSVSVAPGQTARITCGGNNIGSESVHWYQQKPGQAPVLVVYDDSFRPSGIPERFSGSNSGNTATLTISRVEAGDEADYYCQVWDGNSDHVVFGGGTKLTVLG",7.9e-06,102,0.105
"16H7 variant, light chain G23K (antibody, human IgG4 S228P, lambda, V domains shown, IgG4 backbone) VH: not shown VL: SYVLTQPPSVSVAPGQTARITCKGNNIGSESVHWYQQKPGQAPVLVVYDDSDRPSGIPERFSGSNSGNTATLTISRVEAGDEADYYCQVWDGNSDHVVFGGGTKLTVLG",3.9e-05,90,0.104
"16H7 variant, light chain G23H (antibody, human IgG4 S228P, lambda, V domains shown, IgG4 backbone) VH: not shown VL: SYVLTQPPSVSVAPGQTARITCHGNNIGSESVHWYQQKPGQAPVLVVYDDSDRPSGIPERFSGSNSGNTATLTISRVEAGDEADYYCQVWDGNSDHVVFGGGTKLTVLG",5.2e-06,95,0.096
"16H7 variant, light chain D52I (antibody, human IgG4 S228P, lambda, V domains shown, IgG4 backbone) VH: not shown VL: SYVLTQPPSVSVAPGQTARITCGGNNIGSESVHWYQQKPGQAPVLVVYDDSIRPSGIPERFSGSNSGNTATLTISRVEAGDEADYYCQVWDGNSDHVVFGGGTKLTVLG",2.8e-05,110,0.14
"16H7 variant, light chain G23C (antibody, human IgG4 S228P, lambda, V domains shown, IgG4 backbone) VH: not shown VL: SYVLTQPPSVSVAPGQTARITCCGNNIGSESVHWYQQKPGQAPVLVVYDDSDRPSGIPERFSGSNSGNTATLTISRVEAGDEADYYCQVWDGNSDHVVFGGGTKLTVLG",4.1e-05,108,0.087
"16H7 variant, light chain G23F (antibody, human IgG4 S228P, lambda, V domains shown, IgG4 backbone) VH: not shown VL: SYVLTQPPSVSVAPGQTARITCFGNNIGSESVHWYQQKPGQAPVLVVYDDSDRPSGIPERFSGSNSGNTATLTISRVEAGDEADYYCQVWDGNSDHVVFGGGTKLTVLG",5e-05,98,0.109
"16H7 variant, light chain D52R (antibody, human IgG4 S228P, lambda, V domains shown, IgG4 backbone) VH: not shown VL: SYVLTQPPSVSVAPGQTARITCGGNNIGSESVHWYQQKPGQAPVLVVYDDSRRPSGIPERFSGSNSGNTATLTISRVEAGDEADYYCQVWDGNSDHVVFGGGTKLTVLG",2.9e-05,96,0.091
"16H7 variant, light chain D52K (antibody, human IgG4 S228P, lambda, V domains shown, IgG4 backbone) VH: not shown VL: SYVLTQPPSVSVAPGQTARITCGGNNIGSESVHWYQQKPGQAPVLVVYDDSKRPSGIPERFSGSNSGNTATLTISRVEAGDEADYYCQVWDGNSDHVVFGGGTKLTVLG",9.2e-05,101,0.117
"16H7 variant, light chain D52S (antibody, human IgG4 S228P, lambda, V domains shown, IgG4 backbone) VH: not shown VL: SYVLTQPPSVSVAPGQTARITCGGNNIGSESVHWYQQKPGQAPVLVVYDDSSRPSGIPERFSGSNSGNTATLTISRVEAGDEADYYCQVWDGNSDHVVFGGGTKLTVLG",4e-05,108,0.098
"16H7 variant, light chain D52L (antibody, human IgG4 S228P, lambda, V domains shown, IgG4 backbone) VH: not shown VL: SYVLTQPPSVSVAPGQTARITCGGNNIGSESVHWYQQKPGQAPVLVVYDDSLRPSGIPERFSGSNSGNTATLTISRVEAGDEADYYCQVWDGNSDHVVFGGGTKLTVLG",5.7e-05,106,0.107
"16H7 variant, light chain G23A (antibody, human IgG4 S228P, lambda, V domains shown, IgG4 backbone) VH: not shown VL: SYVLTQPPSVSVAPGQTARITCAGNNIGSESVHWYQQKPGQAPVLVVYDDSDRPSGIPERFSGSNSGNTATLTISRVEAGDEADYYCQVWDGNSDHVVFGGGTKLTVLG",4e-05,107,0.122
